According to patent publication US20250303000A1, “COMPOSITIONS AND METHODS FOR INDUCIBLE ALTERNATIVE SPLICING REGULATION OF GENE EXPRESSION” (THE CHILDREN'S HOSPITAL OF PHILADELPHIA, priority 2022, published 2025):

B1: miniXS3B: miniX^on cassette with optimized Kozak/ATG and cryptic splicing sites eliminated; SEQ ID NO: 1 (nucleic acid)
DNA: TTTAAACAAGCTTGGCAATCCGGTACTGTTGGTAAATTTCTCTACAACTTAACCTTACAGAGAGCCACTGGCTTCAGCTTTGCCTTTCTTGGTAACTTTTCTGGTAAGTTCTCTCGTTACCATCTTTTGAAATTTTAAGTGAATTAATACATATCTTGCTTAATCTCTTGTGCAAAAAATGTTTTCCATTTATGACAAAACAAAAATTGTGTGAAATTTCAAATATTGGATTAGGAAATACAAAGTTACTGAAAGTGAGGTACTAATGTTTATAAAATAAAAACTTTTTCTTGCCATTTGCAGATTAACATTTTTGAGTCAATCCAAGTGCCACCATGGAAAAAGTTCATGATTGTGTAGAGTAAGACATAATTTTGTTGAAATTTAACTCTGAATACTTAATGTGGTACTGAATACTTAATGTGGTACTGAGAAGCAGCCTAACTGACCACACAACATTCCACGCCTGGCTAATTTTTGTATTTTTAATAAAAACGGGGTTTCACCATGGTGGCCGGGCTGGTTCTGGTTGTTTATGATCTTTATTTTTTGGTGATCTAGGAACCAAACAACAAAAAATTGTTGTTTCCCGTGGGTCGGATCC
modifications: SF3B3.miniXS3B (m3B; miniXS3B; XS3B)
B2: miniXS3B2: miniX^on cassette with optimized Kozak/ATG and cryptic splicing sites eliminated; SEQ ID NO: 2 (nucleic acid)
DNA: GTTTAAACAAGCTTGGCAATCCGGTACTGTTGGTAAATTTCTCTACAACTTAACCTTACAGAGAGCCACTGGCTTCAGCTTTGCCTTTCTTGGTAACTTTTCTGGTAAGTTCTCTCGTTACCATCTTTTGAAATTTTAAATGAATTAATACATATCTTGCTTAATCTCTTGTGCAAAAAATGTTTTCCATTTATGACAAAACAAAAATTGTGTGAAATTTCAAATATTGGATTAAAAAATACAAAGTTACGGAAAATGAGGTACTAATGTTTATAAAATAAAAACTTTTTCTTGCCATTTGCAGATTAACATTTTTGAGTCAATCCAAGTGCCACCATGGAAAAAGTTCATGATTGTGTAGAGTAAGACATAATTTTGTTGAAATTTAACTCTGAATACTTAATGTGGTACTGAATACTTAATGTGGTACTGAGAAGCAGCCTAACTGACCACACAACATTCCACGCCTGGCTAATTTTTGTATTTTTAATAAAAACGGGGTTTCACCATGGTGGCCGGGCTGGTTCTGGTTGTTTATGATCTTTATTTTTTGGTGATCTAGGAACCAAACAACAAAAAATTGTTGTTTCCCGTGGGTCGGATCC
modifications: SF3B3.miniXS3B2 (m3B2; miniXS3B2; XS3B2)

Tests used:
loxP-STOP cassette = test: In vivo gene editing in liver of Ai14 mice (FACS, histology, genomic DNA PCR, Sanger sequencing); conditions: LMI070 50 mg kg-1, 7 days after LMI070
From the text: FIGS. 1A-1H. Generation of the miniXon cassette and assessment of miniXon control of SaCas9 for in vivo gene editing in liver. a, Cartoon depicting the AAV genome size with the SF3B3-Xon and SF3B3-miniXon cassettes. b, Luciferase induction in HEK293 cells transfected with SF3B3-miniXon-luciferase or SF3B3-Xon-luciferase in response to varying doses of LMI070. All samples are normalized to Renilla luciferase activity and are relative to DMSO treated cells. Data are the mean±s.e.m. of 8 biological replicates (***P<0.001 versus SF3B3.Xon, two-way ANOVA followed by Bonferroni's post hoc test). c, Splicing inclusion assays of the LMI070-induced exon at 100 nM LMI070. Pseudo exon inclusion in the Xon cassette was detected using primers flanking the pseudoexon (left) or by priming within the novel exon sequence (right; 4 technical replicates). d, Experimental design. […]
The inventors have previously developed switch-on cassettes from LMI070-responsive exons, including from the minimal intronic intervening sequences necessary to recapitulate splicing of pseudoexons in SF3B3 (SF3B3.X^on; X^on). […] AAV8-miniX^on-SaCas9 plus single-guide RNAs targeting the loxP-STOP sequence in Ai14 mice were administered intravenously; after several weeks, LMI070 was administered and gene editing was assessed 7 days later (FIG. 1D). […]

luciferase = test: Luciferase induction in HEK293 cells transfected with switch cassette-luciferase and treated with LMI070; assay type: cell-based, human; conditions: varying doses of LMI070, 24 h
From the text: FIGS. 1A-1H. Generation of the miniXon cassette and assessment of miniXon control of SaCas9 for in vivo gene editing in liver. a, Cartoon depicting the AAV genome size with the SF3B3-Xon and SF3B3-miniXon cassettes. b, Luciferase induction in HEK293 cells transfected with SF3B3-miniXon-luciferase or SF3B3-Xon-luciferase in response to varying doses of LMI070. All samples are normalized to Renilla luciferase activity and are relative to DMSO treated cells. Data are the mean±s.e.m. of 8 biological replicates (***P<0.001 versus SF3B3.Xon, two-way ANOVA followed by Bonferroni's post hoc test). c, Splicing inclusion assays of the LMI070-induced exon at 100 nM LMI070. Pseudo exon inclusion in the Xon cassette was detected using primers flanking the pseudoexon (left) or by priming within the novel exon sequence (right; 4 technical replicates). d, Experimental design. Mice were injected with AAV8-miniXon-SaCas9 plus AAV8-sgAi14-eGFP (1×10^12 viral genomes, 1:1 ratio) and 2 weeks later dosed with vehicle or LMI070 at 50 mg kg-1 to induce SaCas9 expression and editing of the loxP-STOP cassette (guides: sgA14_1: 5′-[…]-3′, sgAi14_2: 5′-[…]-3′). One week later, mice were euthanized, and livers processed to assess gene editing by genomic DNA PCR, histology and FACS of isolated hepatocytes. e, Representative FACS analysis of hepatocytes obtained from Ai14 mice after LMI070 or vehicle treatment. The gating/sorting strategy (above), and the percentage of tdTomato expressing cells for each condition (below) is shown (4 biological replicates). f, Representative photomicrographs of liver sections obtained from AAV injected Ai14 mice 1-week after LMI070 treatment. tdTomato expression (red) is evident in LMI070 treated mice (5 mice per group; scale bars, 100 μm). g, SaCas9 mediated editing of the loxP-STOP cassette in Ai14 mice as detected by PCR assay of liver genomic DNA (3 of 5 mice with guides plus LMI, 2 of 4 mice with guides plus vehicle, 1 of 2 untreated mice are shown). […] The sequence shown is represented in SEQ ID NO: 29.
FIG. 2. Comparison of the miniX^on, SF3B3.miniXS3B (miniXS3B), and SF3B3.miniXS3B2 (miniXS3B2) systems for luciferase induction. To increase expression and induction of the miniXon cassette in response to LMI070, the kozak sequence within the LMI070 induced translation initiation exon was optimized, and splice sites located within the upstream and downstream intron eliminated. […]
To test these switches, the cassettes were cloned upstream of luciferase or cDNA. HEK293 cells were transfected with the candidate cassettes, treated with LMI070, and luciferase activity expression determined 24 h later.

SaCas9 = SaCas9 protein levels by western blot in HEK293 cells treated with DMSO or LMI070; assay type: cell-based, human; conditions: for SaCas9 protein level, DMSO treated cells / SaCas9 protein induction after LMI070 treatment: 24 h; for SaCas9 protein levels relative to SF3B3.miniXon cassette / SaCas9 protein induction after LMI070 treatment: LMI070 (100 nM)
Experimental: FIG. 3. Comparison of the miniX^on (miX^on), SF3B3.miniXS3B (m3B), and SF3B3.miniXS3B2 (m3B2) systems for HD editing control. (top) Cartoon depicting X^on splicing system for controlling Cas9 protein translation in response to LMI070. (middle, bottom) Bicistronic plasmids containing Xon.SaCas9 or miniXon.SaCas9 expression cassette together with a CMVeGFP expression cassettes were transfected in HEK293 cells and treated with DMSO (middle) or LMI070 (100 nM) (bottom) and Cas9 protein levels were determined by western blot 24 h later. eGFP proteins served as transfection control. Western blot is representative of 4 biological replicates.
While gene editing approaches provide an enormous opportunity for altering or removing disease alleles, prolonged expression of the editing machinery from viral vectors could be problematic. The editing enzymes are foreign proteins and may induce immune responses, and prolonged gene expression would increase opportunities for off-target editing (Charlesworth et al., 2019; Vakulskas et al., 2018). To test the efficacy of SF3B3.miXS3B and SF3B3.miXS3B2 to control translation of CRISPR effector proteins, SF3B3.miXS3B and SF3B3.miXS3B2-SaCas9-CRISPR expression cassettes were generated and SaCas9 protein levels were quantified in response to DMSO or LMI070 treatment in HEK293 cells (FIG. 3A).

Row | Molecule | Editing of the loxP-STOP cassette (genomic DNA PCR, 355 bp product, Sanger sequencing) (loxP-STOP cassette; Ai14 mice liver) | tdTomato expression in hepatocytes / liver sections (loxP-STOP cassette; Ai14 mice, AAV8-miniXon-SaCas9 plus AAV8-sgAi14-eGFP i.v.) | Luciferase induction relative to X^on and miniX^on (luciferase) | Protein levels (luciferase) relative to SF3B3.miniX^on cassette (luciferase) | SaCas9 protein level, DMSO treated cells (SaCas9) | SaCas9 protein levels relative to SF3B3.miniXon cassette (SaCas9) | SaCas9 protein induction after LMI070 treatment (SaCas9)
1 | CC1(C)CC(Oc2ccc(-c3ccc(-c4cn[nH]c4)cc3O)nn2)CC(C)(C)N1 [LMI070, 5-(1H-Pyrazol-4-yl)-2-(6-((2,2,6,6-tetramethylpiperidin-4-yl)oxy)pyridazin-3-yl) phenol] | observed | evident | – | – | – | – | –
2 | B1 | – | – | improved induction relative to X^on and miniX^on | higher protein levels relative to the previous SF3B3.miniX^on cassette | almost undetectable | higher | evident
3 | B2 | – | – | improved induction relative to X^on and miniX^on | higher protein levels relative to the previous SF3B3.miniX^on cassette | almost undetectable | higher | evident
